The values that follow come from the nanobody polyreactivity screen of Harvey et al. (2022).

This data set is described as follows: yeast display, Sf9 membrane polyspecificity reagent, FACS + sequencing; frameworks hold sequencing errors. The method, boiled down:
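Nanobodies from a synthetic yeast display library (Saccharomyces cerevisiae BJ5465), induced 36–48 hours with galactose, were stained 1 hour at 4 °C with 10% biotinylated, detergent-solubilized Sf9 membrane reagent, enriched on streptavidin microbeads, then FACS-sorted. Anti-HA (expression) and streptavidin (reagent binding) fluorescence set low and high (top ~1%) gates. Polyreactivity labels come from the gate of origin. Genes were colony-PCR amplified, MiSeq 2 × 250 sequenced and filtered by CDR length.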
Take “QVQLVESGGGLVQAGGSLRLSCAASGFTFYRYVMGWYRQAPGKERELVAAISWNGGRTYYADSVKGRFTISRDNAKNTVYLQMNSLKPEDTAVYYCAAVPGSRSYGGDYWGQGTQVTVSS”: the “polyreactivity (PSR sort gate)” value is “high polyreactivity”.

As to “QVQLVESGGGLVQAGGSLRLSCAASGFTFYRYVMGWYRQAPGTERELVAAITGGGRTYYADSVKGRFTISRDNAKNTVYLQMNSLKPEDTAVYYCNKAVPAWGLFDYWGQGTQVTVSS”, the “polyreactivity (PSR sort gate)” value is recorded as “low polyreactivity”.

Turning to “QVQLVESGGGLVQAGGSLRLSCAASGFTFYSYAMGWYRQAPGKERELFAAITQSGGSTYYADSVKGRFTISRDNAKNTVYLQMNSLKPEDTAVYYCAADIYNDYDYGYYYWGQGTQVTVSS”, the “polyreactivity (PSR sort gate)” value is on record as “low polyreactivity”.

For “QVQLVESGGGLVQAGGSLRLSCAASGFTFYSYAMGWYRQAPGKERELVAAISRSGGSTRYADSVKGRFTISRDNAKNTVYLQMNSLKPEDTAVYYCNAGKYRAYDYWGQGTQVTVSS”, the “polyreactivity (PSR sort gate)” value is reported as “high polyreactivity”.

For “QVQLVESGGGLVQAGGSLRLSCAASGFTFYSYAMGWYRQAPGKERELVASISQSGGRTYYADSVKGRFTISRDNAKNTVYLQMNSLKPEDTAVYYCARQRSYGRSSYSYGYDYWGQGTKVTVSS”, the “polyreactivity (PSR sort gate)” value is “high polyreactivity”.

Regarding “QVQLVESGGGLVQAGGSLRLSCAASGFTFYTFAMGLYRQAPGKERELVASITNGGGTYYADSVKGRFTNSRDNAKNTVYLQMNSLKPEDTAVFYCARRVYYWGRYKDEYNYWGQGTQVTVSS”, the “polyreactivity (PSR sort gate)” value is recorded as “high polyreactivity”.

For “QVQLVESGGGLVQAGGSLRLSCAASGFTFYWYAMGWYRQAPGKERELVAAISTSDTSTYADSVKGRFTISRDNAKNTVYLQMNSLKPEDTAVYYCNRRQYYYYGTSRYNYWGQGTQVTVSS”, the “polyreactivity (PSR sort gate)” value was “low polyreactivity”.

For “QVQLVESGGGLVQAGGSLRLSCAASGFTFYWYAMGWYRQAPGKERELVATINWRGDTYYADSVKGRFTISRDNAKNTVYLQMNSLKPEDTAVYYCAATKRLAPRPLRLGYGSYNFCGQGTQVTVSS”, the “polyreactivity (PSR sort gate)” value is “high polyreactivity”.

As for “QVQLVESGGGLVQAGGSLRLSCAASGFTFYYNAMGCYRQAPGKERELVASISSNGTSTYYADSVKGRFTISRDNAKNTVYLQMNSLKPEDTAVYYCNVDIFDPRTYDYWGQGTQVTVSS”, the “polyreactivity (PSR sort gate)” value is listed as “low polyreactivity”.

As to “QVQLVESGGGLVQAGGSLRLSCAASGFTFYYNAMGWYRQAPGKERELVASISRGTSTNYADSVKGRFTISRDNAKNTVYLQMNSLKPEDTAVYYCAAKSYSDYDYWGQGTQVTVSS”, the “polyreactivity (PSR sort gate)” value is on record as “low polyreactivity”.

Regarding “QVQLVESGGGLVQAGGSLRLSCAASGFTFYYNAMGWYRQAPGKERELVSIRFRGGNTYYADSVKVRFTISRDNAKNTVYLQMNSLKPVDTAVYYCNADDRVSTYVDFDYWGQGTQVTVSS”, the “polyreactivity (PSR sort gate)” value is listed as “low polyreactivity”.

Take “QVQLVESGGGLVQAGGSLRLSCAASGFTFYYYAMGLYRQAPGKERELVAAITYSGGSTYYADSVKGRFTISRDNAKNTVYLQMNSLKPEDTAVYYCAAEAIPRLSWWYGVDYWGQGTQVTVSS”: the “polyreactivity (PSR sort gate)” value is “low polyreactivity”.

In the case of “QVQLVESGGGLVQAGGSLRLSCAASGFTFYYYAMGWYRQAPGKERELVAAINGGSSTNYADSVKGRFTISRDNAKNTVYLQMNSLKPDDTAVYYCAAETRFYRNIDKIYFVLDRVDYWGQGTQVTVSS”, the “polyreactivity (PSR sort gate)” value is reported as “low polyreactivity”.

With “QVQLVESGGGLVQAGGSLRLSCAASGFTFYYYAMGWYRQAPGKERELVAAISDSGGITSYADSVKGRFTISRDNAKNTVYLQMNSLKPEDTAVYYCAAEWSQWPYDYWGQGTQVTVSS”, the “polyreactivity (PSR sort gate)” value is “low polyreactivity”.

For the sequence “QVQLVESGGGLVQAGGSLRLSCAASGFTFYYYAMGWYRQAPGKERELVAGINSDGNTYYADSVKGRFTISRDNAKNNVYLQMNSLKPEDTAVYYCAASKLWPKNFVRHDYWGQGTQVTVSS”, the “polyreactivity (PSR sort gate)” value is “low polyreactivity”.

As for “QVQLVESGGGLVQAGGSLRLSCAASGFTFYYYAMGWYRQAPGKERELVARITSGGSTYYADSVKGRFTISRDNAKNTVYLQMISLKPEDTAVYYCNVDVSVEVAYWGQGTQVTVSS”, the “polyreactivity (PSR sort gate)” value is “low polyreactivity”.

Turning to “QVQLVESGGGLVQAGGSLRLSCAASGFTFYYYAMGWYRQAPGKERELVATISSGGSTYYADSVKGRFTISRDNAKNTVYLQMNSLKPEDTAVYYCAADYLIYYLYEGSIKYGYWGQGTQVTVSS”, the “polyreactivity (PSR sort gate)” value is “high polyreactivity”.

With “QVQLVESGGGLVQAGGSLRLSCAASGFTFYYYAMGWYRQEPGKERELVAAISSRGGSTYYADSVKGRFTISRDNAKNTVYLQMNSLKREDTPVYYCAAVYKYGGATYRSTSYYYWGQGTQVTVSS”, the “polyreactivity (PSR sort gate)” value was “high polyreactivity”.

With “QVQLVESGGGLVQAGGSLRLSCAASGFTFYYYPMGWYRQAPGKERELVAAISSSGGRTYYADSVKGRFTISRDNSKNTVYLQMNSLKPEDTAVYYCAADRYFRSYDYWGQGTQVTVSS”, the “polyreactivity (PSR sort gate)” value is “high polyreactivity”.

For “QVQLVESGGGLVQAGGSLRLSCAASGFTFYYYTMGWYRQAPGKERELVAAITLSGSTTYYADSVKGRFTISRDNAKNTVYLQMNSLKPEDTAVYYCAAGFSYEWGYPTFDYWGQGTQVTVSS”, the “polyreactivity (PSR sort gate)” value is “low polyreactivity”.

As to “QVQLVESGGGLVQAGGSLRLSCAASGFTFYYYTMGWYRQAPGKERELVAGITSRGGSTTYADSVKGRFTISRDNAKNTVYLQMNSLKPEDTAVYYCNARWAVHSGYDYWGQGTLVTVSS”, the “polyreactivity (PSR sort gate)” value is given as “high polyreactivity”.

As to “QVQLVESGGGLVQAGGSLRLSCAASGFTIAPDAMGWYRPAPGKERELVADISYSGGSKYYADSVKGRFTISRDTAKNTVYLQMNSLKPEDTAVYYCNAVIWWYWGRSYAYNYWGQGTQVTVSS”, the “polyreactivity (PSR sort gate)” value is recorded as “high polyreactivity”.

As to “QVQLVESGGGLVQAGGSLRLSCAASGFTIGKNAMGWYRQAPGKERELVAAISLSGGRTYADSVKGRFTISRDNAKNTVYLQTNSLKPEDTAVYYCAANRYPKFYWGQGTQVTVSS”, the “polyreactivity (PSR sort gate)” value is “high polyreactivity”.

For the sequence “QVQLVESGGGLVQAGGSLRLSCAASGFTIGSNVMGWYRQAPGKERELVAAISSRGGSTYYADSVKGRFTISRDNAMNTVYLQMNSLKPEDTAVYDCAADAYYRGGWGDYWGQGTQVTVSS”, the “polyreactivity (PSR sort gate)” value was “high polyreactivity”.

“QVQLVESGGGLVQAGGSLRLSCAASGFTIGYNVMGWYRQAPGKERELVATISWNGARTYYADSVKGRFTISRDNAKNTVYLQMNSLKPEDTAVYYCAARRYYRGEYDYWGQGTQVTVSS”: the “polyreactivity (PSR sort gate)” value is listed as “low polyreactivity”.

As to “QVQLVESGGGLVQAGGSLRLSCAASGFTIGYYVMGWYRQAPGKDRELVAAITRSGSRTYYADSVKGRFTISRDNAKNTVYLQMNSLKPEETAVYYCAADYKTFLRSFDYWGQGTQVTVSS”, the “polyreactivity (PSR sort gate)” value is on record as “high polyreactivity”.

As for “QVQLVESGGGLVQAGGSLRLSCAASGFTIHRYAMGWYRQAPGKERELVAAIRWSGGRTYYADSVKGRFTISRDNAKNTVYLQMNSLKPEDTAVYYCAARTNSPRGYGSDYWGKGTQVTVSS”, the “polyreactivity (PSR sort gate)” value is reported as “high polyreactivity”.

For “QVQLVESGGGLVQAGGSLRLSCAASGFTIIRYAMGWYRPAPGKERELVATITRRGGSTYYADSVKGRFTISRDNAKNTVYLQMNSLKPEDTAVYYCAARIRPLYANVRYGYWGQGTQVTVSS”, the “polyreactivity (PSR sort gate)” value is listed as “high polyreactivity”.

As for “QVQLVESGGGLVQAGGSLRLSCAASGFTIISYTMGWYRQAPGKERELVAAIRGGGRTYYADSVKGRFTISRDNAKNTVYLQMNSQKPEDTAVYYCASRLRYGGHYDYWGQGTQVTVSS”, the “polyreactivity (PSR sort gate)” value is recorded as “high polyreactivity”.

Consider “QVQLVESGGGLVQAGGSLRLSCAASGFTIPTYTMGWYRQAPGKEREFVARITKRGGSTYYADSVKGRFTISRDNAKNTVYLQMNGLKPEDTAVYYCNARRYGKVVRSRYNYWGQGTQVTVSS”, for which the “polyreactivity (PSR sort gate)” value was “high polyreactivity”.

Take “QVQLVESGGGLVQAGGSLRLSCAASGFTIPVYVMGWYRQAPGKERELVAAITRTGGRTYYADSVKGRFTISRDNAKNTVYLQMNSLKPEDTAVYYCAAFTHRYGISEFDYWGQGTQVTVSS”: the “polyreactivity (PSR sort gate)” value is reported as “high polyreactivity”.

As for “QVQLVESGGGLVQAGGSLRLSCAASGFTIQRYAMGWYRQAPGKERELVAAITSGGSTYYADSVKGRFTISRDNAKNTVYLQMNSLKPEDTAVYYCATRAVWSSWGRRYDSWGQGTQVTVSS”, the “polyreactivity (PSR sort gate)” value is listed as “high polyreactivity”.

For “QVQLVESGGGLVQAGGSLRLSCAASGFTIRSYVMGWYRQAPGKEREFVAAISYRGGGTNYADSVKGRFTISRDNAKNTVYLQMNSLKPEDTAVYYCNARSGSSKSGYYYWGQGTQVTVSS”, the “polyreactivity (PSR sort gate)” value is on record as “high polyreactivity”.

Turning to “QVQLVESGGGLVQAGGSLRLSCAASGFTIRWYLMGWYRQAPGKERELVAAISWSGDRTYYADSVKGRFTISRDNAKNTVYLQMNSLKPEDTAVYYCNSLSAFQVDNYDYWGQGTQVTVSS”, the “polyreactivity (PSR sort gate)” value is reported as “high polyreactivity”.

On to “QVQLVESGGGLVQAGGSLRLSCAASGFTIRYYAMGWYRQAPGKERELVAAIRFSGGSTYYADSVKGRFTISRDNAKNTVYLQMNSLKPEDTAVYYCNARRRYGLDLGTFGYWGQGTQVTVSS”, for which the “polyreactivity (PSR sort gate)” value was “high polyreactivity”.

In the case of “QVQLVESGGGLVQAGGSLRLSCAASGFTIRYYAMGWYRQAPGKERELVAAISSSGGSTYYADSVKGRFTISRDNAKNTVYLQMNSLKTEDTAVYYCAAYYHGRMDYWGQGTQVTVSS”, the “polyreactivity (PSR sort gate)” value is listed as “high polyreactivity”.

Consider “QVQLVESGGGLVQAGGSLRLSCAASGFTIRYYTMGWYRQAPGKERELVAAITWSGGRTYYADSVKGRFTISRDNAKNTVYLQMNSLKPDETAVYYCAADVTKRASRDYYWGQGTQVTVSS”, for which the “polyreactivity (PSR sort gate)” value is recorded as “high polyreactivity”.

Consider “QVQLVESGGGLVQAGGSLRLSCAASGFTITYYVMGWYRQAPGKERELVAAISSGGRTYYADSVKGRFTISRDNAKNTVYLQMNSLKPEDTAVYYCARAISIYPGFGYWGQGTQVTVSS”, for which the “polyreactivity (PSR sort gate)” value was “high polyreactivity”.

As for “QVQLVESGGGLVQAGGSLRLSCAASGFTIVHYAMGWYRQAPGKERELVAAITWNGGRTYYADSVKGRFTISRDTAKNTVYLQMNSLKPEDTAVYYCAVRYKSWYGFNYWGQGTQVTVSS”, the “polyreactivity (PSR sort gate)” value was “high polyreactivity”.

With “QVQLVESGGGLVQAGGSLRLSCAASGFTIYIYVMGWYRQAPGKETELVADITWSGGRTYYADSVKGRFTISRDNAKNTVYLQMNSLKPEDTAVYYCAASYPGLSYHKYEYWGQGTQVTVSS”, the “polyreactivity (PSR sort gate)” value was “high polyreactivity”.

With “QVQLVESGGGLVQAGGSLRLSCAASGFTIYWYAMGWYRQAPGKERELVAAITRSGSSTYYADSVKGRFTISRDNAKNTVYVQMNSLKPEDTAVYYSAALPYTPYYDAYDYWGQGTQVTVSS”, the “polyreactivity (PSR sort gate)” value was “high polyreactivity”.
